# The DeepSol protein solubility set
# Test: soluble on expression in E. coli; label from the status in PepcDB or PDB records
row,Sequence,soluble on expression in E. coli
1,MKKVIIAGNGPSLKEIDYSRLPNDFDVFRCNQFYFEDKYYLGKKCKAVFYNPSLFFEQYYTLKHLIQNQEYETELIMCSNYNQAHLENENFVKTFYDYFPDAHLGYDFFKQLKDFNAYFKFHEIQFNQRITSGVYMCAVAIALGYKEIYLSGIDFYQNGSSYAFDTKQKNLLKLAPNFKNDNSHYIGHSKNTDIKALEFLEKTYKIKLYCLCPNSLLANFIGLAPNLNSNFIIQEKNNYTKDILIPSSEAYGKFSKNINFKKIKIKENIYYKLIKDLLRLPSDIKHYFKGK,soluble
2,MGSDKIHHHHHHMTIRQTKEANLLISERADFQVTAKIEQMAKGYIDRWHQHPWHQIAFPFEGILQTKVADSQFVIPHSGMLFIPANTPHESFVVTDTKFIGIYLNPQFQNHFPLTAKAISVTPFLRELVLHINHGVSNSIVSEEELSKLVAVLIDQISSGESYQMKLLLPSDRRLMIIFKALMTDPQLNTKLSDWAKQVGASERTLSRLFTKELGMTFPLWRQHLRLVSSLNLLETNLSVQEIAFKVGYNADSSFIYAFKKLFQQTPQQYRHSGFKLSSRINDK,not soluble
3,MDHDKLEANLLDHALTKYLKSTKQLDEATVPKHVNNVRGFILRIIYRHGSCTIKDILKEVTLSPSATTTALNHLEQEGFIERSRNNNDRRTVWITLSESGRGAAEQMIENRQQLIDGMFERLTAEEKKTFLAIIAKLAQ,not soluble
4,MGSDKIHHHHHHMQQLTKPKKIAIIGAGFRGITAAKIFQDAGIEFVILDKNDATGGVWRTFANQSSYVQIPEPEYRFDMDYPNGLPSEFTPRDEILAHAERFINVHGIGKHIIFKSEVFSIEDISDSKYRVYYKHDNANKSLEVDGIYYAGGRLHKRRTVHFPGEKNFQGLIRYGISDDMPISEYRGKKVAIIGCGAFAMENARTALLNGATHVTIIAKTINIVLPRMVMFWLNSMRLAPVAPLLKMSWKMYDWAGTNFMKENLDGFSINQRTVPIISDFIFLAHKVGKAEFKKDSIDFIDSNSVVTSDGTKIEADIILKCVGFEGQMDVFKQVYPPFEAVNWIWVNKKTNFVLDQDPEFGMTTKATKLMTSGSTLLLTKIAARVFAMSLINPSKFEQIIPVLPTSQNAGYNISYHMGSLSKLLVANKDIKKFILRTSAKKSKSMIEKGGNGKYLEFCKREWKQQCEALGVEEVEYPFVFPWWILLWENWQQLVNRFFLAAFPEQNIVRDIQPEDVEWSFISAES,not soluble
5,GPGSMSPRTSERILALGVRRLRIRSSSTASSSCNGVVEFSTCGGAGGPSYRPLAAMAMIANIQAVAFTDSRRSVFQNKKTLPSPHGRNITPDAAETKGRALFSDSNSECFPADLDPPSASQLDRILPSLNQLRDEIPSSEYVEELVRRQGVSTDLWSNGEKNNSADDDDE,not soluble
6,MESLASLYKNHIATLQERTRDALARFKLDALLIHSGELFNVFLDDHPYPFKVNPQFKAWVPVTQVPNCWLLVDGVNKPKLWFYLPVDYWHNVEPLPTSFWTEDVEVIALPKADGIGSLLPAARGNIGYIGPVPERALQLGIEASNINPKGVIDYLHYYRSFKTEYELACMREAQKMAVNGHRAAEEAFRSGMSEFDINIAYLTATGHRDTDVPYSNIVALNEHAAVLHYTKLDHQAPEEMRSFLLDAGAEYNGYAADLTRTWSAKSDNDYAQLVKDVNDEQLALIATMKAGVSYVDYHIQFHQRIAKLLRKHQIITDMSEEAMVENDLTGPFMPHGIGHPLGLQVHDVAGFMQDDSGTHLAAPAKYPYLRCTRILQPGMVLTIEPGIYFIESLLAPWREGQFSKHFNWQKIEALKPFGGIRIEDNVVIHENNVENMTRDLKLA,soluble
7,SLYMDTAVSPFYFVSNAPRELLDGVSQTLASRDQLELENRALRQELLLKNSELLMLGQYKQENARLRELLGSPLRQDEQKMVTQVISTVNDPYSDQVVIDKGSVNGVYEGQPVISDKGVVGQVVAVAKLTSRVLLICDATHALPIQVLRNDIRVIAAGNGCTDDLQLEHLPANTDIRVGDVLVTSGLGGRFPEGYPVAVVSSVKLDTQRAYTVIQARPTAGLQRLRYLLLLWGADRNGANPMTPEEVHRVANERLMQMMPQVLPSPDAMGPKLPEPATGIAQPTPQQPATGNAATAPAAPTQPAANRSPQRATPPQSGAQPPARAPGGQ,soluble
8,AYDIISDIHGCYDEMTALIQKLGYTIKNGVPVHEEGRVLVFAGDLTDRGPKSIEVIRFVAGAYEKGAVRYVPGNHCNKLYRYLKGNPVKVMHGLETTAAELEELSKDEKKSVSEQFMKLYETAPLYDILHNGELVVAHAGIRADDIGKYTRRVKDFVLYGDVTGETYPDGRPIRRDWAAAYNGKAWVVYGHTPVKEPRKVNRTINIDTGCVFGNQLTGFRFPEIETVSVPSSLPYDESRFRP,not soluble
9,MKCVFVTVGTTSFDDLIACVSAPDSLQKIESLGYNRLILQIGRGTVVPEPFSTESFTLDVYRYKDSLKEDIQKADLVISHAGAGSCLETLEKGKPLVVVINEKLMNNHQLELAKQLHKEGHLFYCTCSTLPGLLQSMDLSTLKCYPPGQPEKFSAFLDKVVGLQK,soluble
10,MSLNRDQSDLHIDELLADPFGGNIEIPGSEAVKAEKEQVRLVDVLPEENKEKAIQLAGQIDHKNMQSIVLYGSQAQSKLLNFSHDMINHVQKKDVGEIGEILGELMKKLEQVNPDDLQSKKKGFLARMFGRVSSSLQEVLSKYQKTSVQIDRISLKLEHSKNALISDNKLLEQLYEKNKEYFAALNVYIAAGELKLEELKTKTIPELKQQAESSDHNQMAVQEVNDLIQFADRLDKRVHDLLLSRQITIQSAPQIRLIQNTNQALAEKIQSSIVTAIPLWKNQVAIALTLLRQRNAVDAQQKVSDTTNELLLKNAELLKTNTIETARANERGLVDIDTLKKVQESLISTLEETLTIQEEGRIKRRQAEEELMMMEGDLKQKLITIKEREGHHHHHH,soluble
11,MDHHHHHHHHASENLYFQGHMNLDLAYRSFVLGVAGHPQVERLIKHRAKGLVRRYVAGETLEEALKAAEALEREGVHAILDLLGEMVRTEEEARAFQRGLLELVWALAGKPWPKYISLKLTQLGLDLSEDLALALLREVLREAEPRGVFVRLDMEDSPRVEATLRLYRALREEGFSQVGIVLQSYLYRTEKDLLDLLPYRPNLRLVKGAYREPKEVAFPDKRLIDAEYLHLGKLALKEGLYVAFATHDPRIIAELKRYTEAMGIPRSRFEFQFLYGVRPEEQRRLAREGYTVRAYVPYGRDWYPYLTRRIAERPENLLLVLRSLVSG,soluble
12,MAGQEHHYAVQVKWTGNRGKGTSGYRDYERDYTISTAGKADITGSSDPAFRGDPSRWNPEDLLVASLSACHKLWYLHFCSVNGIIVEDYVDNAEGTLVMEKDGAGQFSEVVLKPVITISKGDPARADELHHDAHDKCFIARSVNFPIRVQGTVKVV,not soluble
13,QDFPQSLIIDSFLVNDGKTRGLNLHLDRFRTACLEHGYAHHEQLDAFFAEALRSIPATGQWFPRLEATPTELRIALRPAPQLRGTTTLTSVAAVRPTPKYKGLDLDYLAELRCSSTTDDALLVTPAGVIAETTTAAIIAWDGTKWMSMAPARLESVTESLLINSARAQGEMVVTAALTVPEAQKLNLWAVNSLHGVTPVTHIDEVALPSNPQRSALLRGWLSQSEENIAQV,not soluble
14,MAHHHHHHMGTLEAQTQGPGSMSMAQQFIDIGANLTDDNYFGNYHGKHYHEEDIDVVLQRAERNGLSHIIITSGCLNDFKKAIEIINKYQNLTNIKLVTTIGVHPTRTNELKQEGYLDELLLLCEKNIDKVVAIGEIGLDYERLQFSDKETQLSGYRTLSILHQKYPYLPFFFHCRKSWSDLCQLNKELGYNGCKGVVHCFDGTEEEMNQILNEGWDIGVTGNSLQSIELLNVMKQIPIERLHIETDCPYCGIKKTSAGFKYLKEKDFGVKVEKYQRNKYVQRRNEPSNIIDIAIIMSSIKHISLFEFVNKVYSNSMNMYFPTMN,soluble
15,MQPGYNGHGRGIYNFIGMTANRRSNLHNTVALDPDILTDTFQQCLFYQYAQCSILLMKEGATGFPFALYAPSTVSSYLYMR,not soluble
16,MGSDKIHHHHHHMSPKAAIHNRSGSFSDRWIAYCQQRNIPYKTVDCHSSDIIEELADCSFLMWNWSQTYAEDMLIARGLIKAVESMGIRVFPNSETCWHFDDKVAQKYLMEALGVPMVKSYVFLDRARALEWARKTEYPKVFKLRGGAGSSNVFLVNDINKAERLINKAFSTGFPPVSRWNALSERWWQFKRDKTFISFFNISRGIFRALIKNPTLERLPVQRNYAYFQDFVPDNDSDIRVIAIGKRAFGIKRMVREGDFRASGSGKILYDPELIPEACIRMTFDLAKKTRSQSLVLDFIFSDGSPLVVEMSYAFASHGYLSCPGYWRNDMTWVEGSFHPEDFMVDDLIVSSVERS,not soluble
